B1: Claudin-19 (Mus musculus), Q9ET38 (parent)
chain: MANSGLQLLGYFLALGGWVGIIASTALPQWKQSSYAGDAIITAVGLYEGLWMSCASQSTGQVQCKLYDSLLALDGHIQSARALMVVAVLLGFVAMVLSVVGMKCTRVGDSNPTAKSRVAISGGALFLLAGLCTLTAVSWYATLVTQEFFNPSTPVNARYEFGPALFVGWASAGLAMLGGSFLCCTCPEPERANSIPQPYRSGPSTAAREPVVKLPASVKGPLGV

Variants of: B1
Conditions: with eltb_clopf cpe

Variant	effect of a mutation on the interaction
MANSGLQLLGYFLALGGWVGIIASTALPQWKQSSYAGDAIITAVGLYEGLWMSCASQSTGQVQCKLYDSLLALDGHIQSARALMVVAVLLGFVAMVLSVVGMKCTRVGDSNPTAKSRVAISGGALFLLAGLCTLTAVSWYATLVTQEFFNASTPVNARYEFGPALFVGWASAGLAMLGGSFLCCTCPEPERANSIPQPYRSGPSTAAREPVVKLPASVKGPLGV [P151A]	decreasing interaction strength
MANSGLQLLGYFLALGGWVGIIASTALPQWKQSSYAGDAIITAVGLYEGLWMSCASQSTGQVQCKLYDSLLALDGHIQSARALMVVAVLLGFVAMVLSVVGMKCTRVGDSNPTAKSRVAISGGALFLLAGLCTLTAVSWYATLVTQEFFNGSTPVNARYEFGPALFVGWASAGLAMLGGSFLCCTCPEPERANSIPQPYRSGPSTAAREPVVKLPASVKGPLGV [P151G]	decreasing interaction strength
MANSGLQLLGYFLALGGWVGIIASTALPQWKQSSYAGDAIITAVGLYEGLWMSCASQSTGQVQCKLYDSLLALDGHIQSARALMVVAVLLGFVAMVLSVVGMKCTRVGDSNPTAKSRVAISGGALFLLAGLCTLTAVSWYATLVTQEFFSPSTPVNARYEFGPALFVGWASAGLAMLGGSFLCCTCPEPERANSIPQPYRSGPSTAAREPVVKLPASVKGPLGV [N150S]	decreasing interaction strength
MANSGLQLLGYFLALGGWVGIIASTALPQWKQSSYAGDAIITAVGLYEGLWMSCASQSTGQVQCKLYDSLLALDGHIQSARALMVVAVLLGFVAMVLSVVGMKCTRVGDSNPTAKSRVAISGGALFLLAGLCTLTAVSWYATLVTQEFFLPSTPVNARYEFGPALFVGWASAGLAMLGGSFLCCTCPEPERANSIPQPYRSGPSTAAREPVVKLPASVKGPLGV [N150L]	decreasing interaction strength
MANSGLQLLGYFLALGGWVGIIASTALPQWKQSSYAGDAIITAVGLYEGLWMSCASQSTGQVQCKLYDSLLALDGHIQSARALMVVAVLLGFVAMVLSVVGMKCTRVGDSNPTAKSRVAISGGALFLLAGLCTLTAVSWYATLVTQEFFQPSTPVNARYEFGPALFVGWASAGLAMLGGSFLCCTCPEPERANSIPQPYRSGPSTAAREPVVKLPASVKGPLGV [N150Q]	decreasing interaction strength
MANSGLQLLGYFLALGGWVGIIASTALPQWKQSSYAGDAIITAVGLYEGLWMSCASQSTGQVQCKLYDSLLALDGHIQSARALMVVAVLLGFVAMVLSVVGMKCTRVGDSNPTAKSRVAISGGALFLLAGLCTLTAVSWYATLVTQEFFKPSTPVNARYEFGPALFVGWASAGLAMLGGSFLCCTCPEPERANSIPQPYRSGPSTAAREPVVKLPASVKGPLGV [N150K]	decreasing interaction strength
MANSGLQLLGYFLALGGWVGIIASTALPQWKQSSYAGDAIITAVGLYEGLWMSCASQSTGQVQCKLYDSLLALDGHIQSARALMVVAVLLGFVAMVLSVVGMKCTRVGDSNPTAKSRVAISGGALFLLAGLCTLTAVSWYATLVTQEFFNPSTPVGARYEFGPALFVGWASAGLAMLGGSFLCCTCPEPERANSIPQPYRSGPSTAAREPVVKLPASVKGPLGV [N156G]	decreasing interaction strength
MANSGLQLLGYFLALGGWVGIIASTALPQWKQSSYAGDAIITAVGLYEGLWMSCASQSTGQVQCKLYDSLLALDGHIQSARALMVVAVLLGFVAMVLSVVGMKCTRVGDSNPTAKSRVAISGGALFLLAGLCTLTAVSWYATLVTQEFFNPSTAVNARYEFGPALFVGWASAGLAMLGGSFLCCTCPEPERANSIPQPYRSGPSTAAREPVVKLPASVKGPLGV [P154A]	decreasing interaction strength
MANSGLQLLGYFLALGGWVGIIASTALPQWKQSSYAGDAIITAVGLYEGLWMSCASQSTGQVQCKLYDSLLALDGHIQSARALMVVAVLLGFVAMVLSVVGMKCTRVGDSNPTAKSRVAISGGALFLLAGLCTLTAVSWYATLVTQEFFNPSTDVNARYEFGPALFVGWASAGLAMLGGSFLCCTCPEPERANSIPQPYRSGPSTAAREPVVKLPASVKGPLGV [P154D]	decreasing interaction strength
MANSGLQLLGYFLALGGWVGIIASTALPQWKQSSYAGDAIITAVGLYEGLWMSCASQSTGQVQCKLYDSLLALDGHIQSARALMVVAVLLGFVAMVLSVVGMKCTRVGDSNPTAKSRVAISGGALFLLAGLCTLTAVSWYATLVTQEFFNPSTPVNARSEFGPALFVGWASAGLAMLGGSFLCCTCPEPERANSIPQPYRSGPSTAAREPVVKLPASVKGPLGV [Y159S]	decreasing interaction strength
MANSGLQLLGYFLALGGWVGIIASTALPQWKQSSYAGDAIITAVGLYEGLWMSCASQSTGQVQCKLYDSLLALDGHIQSARALMVVAVLLGFVAMVLSVVGMKCTRVGDSNPTAKSRVAISGGALFLLAGLCTLTAVSWYATLVTQEFFNPSTPVNARFEFGPALFVGWASAGLAMLGGSFLCCTCPEPERANSIPQPYRSGPSTAAREPVVKLPASVKGPLGV [Y159F]	decreasing interaction strength
MANSGLQLLGYFLALGGWVGIIASTALPQWKQSSYAGDAIITAVGLYEGLWMSCASQSTGQVQCKLYDSLLALDGHIQSARALMVVAVLLGFVAMVLSVVGMKCTRVGDSNPTAKSRVAISGGALFLLAGLCTLTAVSWYATLVTQEFFNPSYPVNARYEFGPALFVGWASAGLAMLGGSFLCCTCPEPERANSIPQPYRSGPSTAAREPVVKLPASVKGPLGV [T153Y]	decreasing interaction strength
MANSGLQLLGYFLALGGWVGIIASTALPQWKQSSYAGDAIITAVGLYEGLWMSCASQSTGQVQCKLYDSLLALDGHIQSARALMVVAVLLGFVAMVLSVVGMKCTRVGDSNPTAKSRVAISGGALFLLAGLCTLTAVSWYATLVTQEFFNPDTPVNARYEFGPALFVGWASAGLAMLGGSFLCCTCPEPERANSIPQPYRSGPSTAAREPVVKLPASVKGPLGV [S152D]	decreasing interaction strength

— IntAct's records for PubMed 25678664
